From US20260217818A1 (Y BIOLOGICS, published 2026)

B1: 0058-001 (antibody, V domains shown)
VH: QVQLVESGGGLVQPGGSLRLSCAASGFTFSSYAMSWVRQAPGKGLEWVAAISGSGGSTYFADSVRGRFTISRDNPQSTLYLQMNSLRAEDTAVYYCAKEGVWWLRYFDHWGQGTPITVSS
VL: QSALTQPRSVSGSPGQSVTISCTGTSNDVGGYTYVSWYQQHPGKAPKLMIYDVSKRPSGVPDRFSGSKSGNTASLTISGLQAEDEADYYCSSYAGSYTWVFGGGTKLTVL
notes: scFv clone from a human phage library, converted into IgG form for the experiments; also called anti-CLDN18.2 antibody 0058-001; monoclone 0058-001
B2: 0058-002 (antibody, V domains shown)
VH: QMQLVESGGGLVQPGGSLRLSCAASGFTFSSYAMSWVRQAPGKGLEWVSAISGSGGSTYYADSVKGRFTISRDNSKNTLYLQMNSLRAEDTAVYYCARGLGYYYYGMDVWGQGTTVTVSS
VL: DIQMTQSPSSLSASVGDRVTITCRASQTVSSWLAWYQQKPGKAPKLLIYAASSLQSGVPSRFSGSGSGTEFTLTISSLQPEDFGTYYCQQYHSFPPTFGGGTKVGIK
notes: scFv clone from a human phage library, converted into IgG form for the experiments; also called anti-CLDN18.2 antibody 0058-002; monoclone 0058-002
B3: 0058-003 (antibody, V domains shown)
VH: QVQLVQSGGGLVQPGGSLRLSCAASGFTFSSYAMSWVRQAPGKGLEWVSAISGSGGSTYYADSVKGRFTISRDNSKNTLYLQMNSLRAEDTAVYYCARGAASSYYFDYWGLGTTVTVSS
VL: DIQMTQSPSSLAAYVGDTVTITCRASAGVRNYLAWVQQKPGKAPRSLIYGAFKLQSGVPSRFSGSGSGTEFTLTISSLQPEDFGTYYCQQYHSFPPTFGGGTKVDIK
notes: scFv clone from a human phage library, converted into IgG form for the experiments; also called anti-CLDN18.2 antibody 0058-003; monoclone 0058-003

Experiments:
[1] = target: T1, human CLDN18.2 protein (CUSABIO, #CSB-MP005498HU (A5)), coated antigen (human, UniProt P56856 1-261); assay: ELISA, CLDN18.2 coated at 1 µg/mL, serially diluted antibody
T1 construct: also called CLDN18.2 antigen; CLDN18.2-VLPs antigen
T1 sequence: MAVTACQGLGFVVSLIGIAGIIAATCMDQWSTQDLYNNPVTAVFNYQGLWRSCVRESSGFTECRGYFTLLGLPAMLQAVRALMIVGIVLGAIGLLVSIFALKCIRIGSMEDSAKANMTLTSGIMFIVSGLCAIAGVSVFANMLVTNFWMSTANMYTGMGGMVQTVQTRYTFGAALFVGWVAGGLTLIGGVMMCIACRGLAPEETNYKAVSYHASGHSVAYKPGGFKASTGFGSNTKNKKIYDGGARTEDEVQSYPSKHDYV
Experimental: (§1) CLDN18.1 (EUPROTEIN, #EPY255141) and CLDN18.2 (CUSABIO, #CSB-MP005498HU (A5)) proteins were each prepared at a concentration of 1 μg/mL using a dilution buffer (4% skim milk/0.05% tween-20/PBS), and 100 μL of each was added to individual wells of an immunoassay plate (Thermo, #439454) and incubated statically at 4° C. for more than 16 hours. After three washes with 300 μL of wash buffer (0.05% tween-20/PBS), 200 μL of blocking buffer (4% skim milk/0.05% tween-20/PBS) was added to the wells and incubated for 1 hour at room temperature. After three washes, 100 μL of the anti-CLDN18.2 antibodies, each prepared by serial dilution, was added to each well and incubated at room temperature for 1 hour with rocking. After three washes, 100 μL of anti-human kappa-HRP (Sigma, #A7164) antibody, prepared at dilution ratio of 1:3,000, was added to each well and incubated at room temperature for 1 hour. After three washes, 100 μL of TMB substrate (Sigma, #T0440) was added to each well and incubated in the dark at room temperature, and when color development was observed, 50 μL of stop solution (1N H₂SO₄) was added to stop the reaction. Absorbance was measured using a microplate reader (Promega, GM3000).

[2] = target: T2, human CLDN18.1 protein (EUPROTEIN, #EPY255141), coated antigen (human, UniProt P56856 1-261, limits assumed); assay: ELISA, CLDN18.1 coated at 1 µg/mL, serially diluted antibody
T2 construct: Bought antigen; also called CLDN18.1 antigen
T2 sequence (looked up): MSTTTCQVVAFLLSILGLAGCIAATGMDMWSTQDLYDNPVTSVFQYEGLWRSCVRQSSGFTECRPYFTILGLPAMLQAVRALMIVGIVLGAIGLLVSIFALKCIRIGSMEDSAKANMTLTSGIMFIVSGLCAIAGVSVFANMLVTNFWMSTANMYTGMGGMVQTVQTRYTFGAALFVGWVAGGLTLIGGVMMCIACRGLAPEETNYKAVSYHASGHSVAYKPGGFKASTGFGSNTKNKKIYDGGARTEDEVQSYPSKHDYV
Experimental: as §1

[3] = target: T3, human claudin-18.2 (claudin-18 spliced variant 2, CLDN18.2) overexpressed on HEK293E/18.2 or CHO-K1/18.2 cells (human, UniProt P56856 1-261); assay: cell-based or functional assay
T3 sequence: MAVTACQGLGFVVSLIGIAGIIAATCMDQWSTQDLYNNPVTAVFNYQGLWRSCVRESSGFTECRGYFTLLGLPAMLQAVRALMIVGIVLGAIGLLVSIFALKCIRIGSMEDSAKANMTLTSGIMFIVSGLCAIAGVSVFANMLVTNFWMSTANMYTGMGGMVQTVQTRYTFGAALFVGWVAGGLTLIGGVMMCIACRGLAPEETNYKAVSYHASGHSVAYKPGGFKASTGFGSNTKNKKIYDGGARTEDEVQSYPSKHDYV

[4] = target: T3, human claudin-18.2 (claudin-18 spliced …); assay: cell-based or functional assay; remark: listed apart in the source

Binder	binding result [1]	binding result [2]	cellular internalization (IncuCyte FabFluor, HEK293E/18.2 cells) [3]	Cell viability (%) at 10 nM, HEK293E/18.2 (Fab-ZAP assay) [4]	IC50 (nM), HEK293E/18.2 (Fab-ZAP assay) [4]
B1	binds	no binding	50%	76%	0.1 nM
B2	binds	no binding	50%	58%	0.04 nM
B3	binds	no binding	50%	56%	0.04 nM
